Assays:
[1] = molecular target: PDGFRα-V242K (UniProt P16234)
[2] = molecular target: PDGFRα-V242K (UniProt P16234); remark: listed apart in the source
[3] = molecular target: HCMV gH/gL/gO complex (strain TR; gO allele gO1b) (human cytomegalovirus (HCMV) strain TR)

Substance	rate of gH/gL/gO-PDGFRα-dependent cell–cell fusion, as percent of parental gO1b (% of parental gO1b) [2]	further results
HCMV gH/gL/gO complex (strain TR; gO allele gO1b)	–	rate of gB-mediated cell–cell fusion (split luciferase, live cells); ARPE19 target cells with PDGFRα against those without [1]: > 100 fold
HCMV gH/gL/gO complex with gO allele gO1a	83	–
HCMV gH/gL/gO complex with gO allele gO1c	107	–
HCMV gH/gL/gO complex with gO allele gO2a	112	–
soluble PDGFRα-FC (from UniProt P16234 24-528) (Fc fusion)	–	inhibition of the rate of gH/gL/gO-PDGFRα-dependent cell–cell fusion (pair that is blocked: m1 and m2) [3]: 2.5 fold

— paper PMC12090739
